# Measurements as given in PMC6420079.
# B1: furbox (dsDNA)
# DNA 1: GGGGATAATGATAATCATTATCGGG
# DNA 2: CCCGATAATGATTATCATTATCCCC
# Molecular target: Fur (Salmonella enterica serovar Typhimurium …, UniProt A0A0H3NJ13 1-150)
# Assay: fluorescence anisotropy
binder,measurement,value
B1,Kd,56 nM
